Article PMC5549943
Values joined by “and” are separate entries in the source; they are usually repeats but may differ in a detail not shown here. Equal values may be shown once.

Biological target: Hepatitis B Virus core protein Cp149 dimer (Hepatitis B Virus)
Assay: resistive-pulse sensing

## Hepatitis B Virus core protein Cp149 dimer (domain or fragment)
  stoichiometry N: 90 dimers and 120 dimers
